Source: patent US20250276075A1, “METHODS OF TREATING AXL-EXPRESSING CANCERS WITH ANTI-AXL ANTIBODIES, ANTIBODY FRAGMENTS AND THEIR IMMUNOCONJUGATES” (BIOATLA, INC., priority 2020, published 2025)

Experiments:
Axl [1] = target: Axl (UniProt P30530); test: ELISA, 1:9 dilution
Axl [2] = target: Axl (UniProt P30530); test: ELISA, 1:3 dilution
Axl [3] = target: T1, Axl (Homo sapiens, UniProt P30530); test: Affinity ELISA of CPE mutant antibodies for binding to Axl at pH 6.0 over pH 7.4; conditions: heavy chain variable region mutants; for Affinity ELISA CPE mutant ratio (1:3, pH 6.0/7.4): 1:3 dilution; for Affinity ELISA CPE mutant ratio (1:9, pH 6.0/7.4): 1:9 dilution
T1 sequence (P30530 26-451 limits assumed): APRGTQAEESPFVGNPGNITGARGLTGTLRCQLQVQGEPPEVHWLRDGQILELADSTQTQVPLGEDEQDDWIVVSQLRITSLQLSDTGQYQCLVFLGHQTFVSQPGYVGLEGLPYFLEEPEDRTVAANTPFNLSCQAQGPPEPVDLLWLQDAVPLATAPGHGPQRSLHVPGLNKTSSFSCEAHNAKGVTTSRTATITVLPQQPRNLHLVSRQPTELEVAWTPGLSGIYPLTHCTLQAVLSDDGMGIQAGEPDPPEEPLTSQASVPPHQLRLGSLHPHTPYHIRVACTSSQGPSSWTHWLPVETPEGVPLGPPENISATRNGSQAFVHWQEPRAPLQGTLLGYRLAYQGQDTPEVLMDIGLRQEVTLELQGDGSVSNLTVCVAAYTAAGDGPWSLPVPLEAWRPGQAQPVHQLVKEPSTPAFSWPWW
Method in brief: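 Single-point mutant anti-Axl antibody library (CPE) screened by ELISA for binding at pH 6.0 versus pH 7.4, at 1:3 and 1:9 antibody dilutions, in serum with FLAG-tag detection and carbonate (Krebs-Ringer) buffer. Selection criterion: pH 6.0/pH 7.4 binding ratio ≥1.5 at either dilution.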

[4] = test system: MiaPaCa2 xenograft tumors; test: MiaPaCa2 xenograft tumor study in mice; type: in vivo; conditions: 1 mg/kg twice weekly for 3 weeks; in comparison with the controls
Procedure: The CAB-Axl-ADC was then injected into mice bearing MiaPaCa2 xenograft tumors at a dose of 1 mg/kg twice weekly for 3 weeks. Several controls were used in this study, including naked CAB (anti-Axl antibody with no conjugation), vehicle, the toxin alone (unconjugated gemcitable), control ADC, an affinity matching anti-Axl ADC (AM ADC).

A549 cells = test: Conditional cell killing by CAB-Axl-ADC (model toxin) at pH 6.0 and 7.4; type: cell-based; conditions: FIG. 11
Description: The anti-Axl antibody of the present invention was conjugated to a model toxin (e.g., gemcitabine) to produce a conditionally active antibody-drug conjugate (CAB-Axl-ADC). The CAB-Axl-ADC was first tested to confirm that the conditional cell killing activity was not altered by the drug conjugation process.

| Molecule | Affinity ELISA CPE mutant ratio (1:9, pH 6.0/7.4) (Axl [1]) | Affinity ELISA CPE mutant ratio (1:3, pH 6.0/7.4) (Axl [2]) | Affinity ELISA CPE mutant ratio (1:3, pH 6.0/7.4) (Axl [3]) | Affinity ELISA CPE mutant ratio (1:9, pH 6.0/7.4) (Axl [3]) | reduction in the size of the tumor [4] | cell killing at pH 6.0 versus pH 7.4 (A549 cells) |
| --- | --- | --- | --- | --- | --- | --- |
| HC-A106L (antibody, V domains shown) VH: EVQLVQSGAEVKKPGATVKISCKVSGYSFTGHTMNWIRQPPGKGLEWIGLIKPSNGGTSYNQKFKGRVTISADKSISTAYLQWSSLKASDTAMYYCAHGHYESYFLMDYWGQGTLVTVSS VL: DIQMTQSPSSLSASVGDRVTITCKASQDVSSAVAWYQQKPGQAPRLLIYWASTRHTGVPSRFSGSGSGTEFTLTISSLQPDDFATYYCQEHFSTPLTFGQGTKVEIK | 1.61 | 21.5 | 21.538 | 1.613 | – | – |
| CAB-Axl-ADC: anti-Axl antibody conjugated to a model toxin (e.g., gemcitabine), conditionally active antibody-drug conjugate (conjugate) VH: EVQLVQSGAEVKKPGATVKISCKVSGYSFWGATMNWIRQPPGKGLEWIGLIKPSNGGTSYNQKFKGRVTISADKSISTAYLQWSSLKASDTAMYYCAHGHYESYEAMDYWGQGTLVTVSS VL: DIQMTQSPSSLSASVGDRVTITCKASQDVVSAVAWYQQKPGQAPRLLIYWQDTRHTGVPSRFSGSGSGTEFTLTISSLQPDDFATYYCQEHFSPPLTFGQGTKVEIK | – | – | – | – | significantly greater reduction in the size of the tumor | killed significantly more cells at pH 6.0 than at pH 7.4 |
| HC-W110A (antibody, V domains shown) VH: EVQLVQSGAEVKKPGATVKISCKVSGYSFTGHTMNWIRQPPGKGLEWIGLIKPSNGGTSYNQKFKGRVTISADKSISTAYLQWSSLKASDTAMYYCAHGHYESYFAMDYAGQGTLVTVSS VL: DIQMTQSPSSLSASVGDRVTITCKASQDVSSAVAWYQQKPGQAPRLLIYWASTRHTGVPSRFSGSGSGTEFTLTISSLQPDDFATYYCQEHFSTPLTFGQGTKVEIK | 1.2 | 7.91 | 7.909 | 1.198 | – | – |
| HC-W110P (antibody, V domains shown) VH: EVQLVQSGAEVKKPGATVKISCKVSGYSFTGHTMNWIRQPPGKGLEWIGLIKPSNGGTSYNQKFKGRVTISADKSISTAYLQWSSLKASDTAMYYCAHGHYESYFAMDYPGQGTLVTVSS VL: DIQMTQSPSSLSASVGDRVTITCKASQDVSSAVAWYQQKPGQAPRLLIYWASTRHTGVPSRFSGSGSGTEFTLTISSLQPDDFATYYCQEHFSTPLTFGQGTKVEIK | 2.15 | 6.49 | 6.490 | 2.148 | – | – |
| HC-W110R (antibody, V domains shown) VH: EVQLVQSGAEVKKPGATVKISCKVSGYSFTGHTMNWIRQPPGKGLEWIGLIKPSNGGTSYNQKFKGRVTISADKSISTAYLQWSSLKASDTAMYYCAHGHYESYFAMDYRGQGTLVTVSS VL: DIQMTQSPSSLSASVGDRVTITCKASQDVSSAVAWYQQKPGQAPRLLIYWASTRHTGVPSRFSGSGSGTEFTLTISSLQPDDFATYYCQEHFSTPLTFGQGTKVEIK | 1.06 | 5.99 | 5.991 | 1.062 | – | – |
| HC-G111H (antibody, V domains shown) VH: EVQLVQSGAEVKKPGATVKISCKVSGYSFTGHTMNWIRQPPGKGLEWIGLIKPSNGGTSYNQKFKGRVTISADKSISTAYLQWSSLKASDTAMYYCAHGHYESYFAMDYWHQGTLVTVSS VL: DIQMTQSPSSLSASVGDRVTITCKASQDVSSAVAWYQQKPGQAPRLLIYWASTRHTGVPSRFSGSGSGTEFTLTISSLQPDDFATYYCQEHFSTPLTFGQGTKVEIK | 1.79 | 1.06 | 1.058 | 1.786 | – | – |
| HC-A106Y (antibody, V domains shown) VH: EVQLVQSGAEVKKPGATVKISCKVSGYSFTGHTMNWIRQPPGKGLEWIGLIKPSNGGTSYNQKFKGRVTISADKSISTAYLQWSSLKASDTAMYYCAHGHYESYFYMDYWGQGTLVTVSS VL: DIQMTQSPSSLSASVGDRVTITCKASQDVSSAVAWYQQKPGQAPRLLIYWASTRHTGVPSRFSGSGSGTEFTLTISSLQPDDFATYYCQEHFSTPLTFGQGTKVEIK | 3.06 | 3.29 | 3.293 | 3.060 | – | – |
| HC-W110D (antibody, V domains shown) VH: EVQLVQSGAEVKKPGATVKISCKVSGYSFTGHTMNWIRQPPGKGLEWIGLIKPSNGGTSYNQKFKGRVTISADKSISTAYLQWSSLKASDTAMYYCAHGHYESYFAMDYDGQGTLVTVSS VL: DIQMTQSPSSLSASVGDRVTITCKASQDVSSAVAWYQQKPGQAPRLLIYWASTRHTGVPSRFSGSGSGTEFTLTISSLQPDDFATYYCQEHFSTPLTFGQGTKVEIK | 1.11 | 3.72 | 3.716 | 1.112 | – | – |
| HC-W110L (antibody, V domains shown) VH: EVQLVQSGAEVKKPGATVKISCKVSGYSFTGHTMNWIRQPPGKGLEWIGLIKPSNGGTSYNQKFKGRVTISADKSISTAYLQWSSLKASDTAMYYCAHGHYESYFAMDYLGQGTLVTVSS VL: DIQMTQSPSSLSASVGDRVTITCKASQDVSSAVAWYQQKPGQAPRLLIYWASTRHTGVPSRFSGSGSGTEFTLTISSLQPDDFATYYCQEHFSTPLTFGQGTKVEIK | 0.924 | 8.22 | 8.220 | 0.924 | – | – |
| HC-M107F (antibody, V domains shown) VH: EVQLVQSGAEVKKPGATVKISCKVSGYSFTGHTMNWIRQPPGKGLEWIGLIKPSNGGTSYNQKFKGRVTISADKSISTAYLQWSSLKASDTAMYYCAHGHYESYFAFDYWGQGTLVTVSS VL: DIQMTQSPSSLSASVGDRVTITCKASQDVSSAVAWYQQKPGQAPRLLIYWASTRHTGVPSRFSGSGSGTEFTLTISSLQPDDFATYYCQEHFSTPLTFGQGTKVEIK | 1.09 | 20.6 | 20.579 | 1.090 | – | – |
| HC-M107E (antibody, V domains shown) VH: EVQLVQSGAEVKKPGATVKISCKVSGYSFTGHTMNWIRQPPGKGLEWIGLIKPSNGGTSYNQKFKGRVTISADKSISTAYLQWSSLKASDTAMYYCAHGHYESYFAEDYWGQGTLVTVSS VL: DIQMTQSPSSLSASVGDRVTITCKASQDVSSAVAWYQQKPGQAPRLLIYWASTRHTGVPSRFSGSGSGTEFTLTISSLQPDDFATYYCQEHFSTPLTFGQGTKVEIK | 1.36 | 2.16 | 2.164 | 1.357 | – | – |
